Columns and labels:
DFA0 = target: T1, DFA0; assay: SEC of mixed components; linear tetramer listed in Table 6, neighbours in the chain
T1 construct: Bivalent connector
T1 chain: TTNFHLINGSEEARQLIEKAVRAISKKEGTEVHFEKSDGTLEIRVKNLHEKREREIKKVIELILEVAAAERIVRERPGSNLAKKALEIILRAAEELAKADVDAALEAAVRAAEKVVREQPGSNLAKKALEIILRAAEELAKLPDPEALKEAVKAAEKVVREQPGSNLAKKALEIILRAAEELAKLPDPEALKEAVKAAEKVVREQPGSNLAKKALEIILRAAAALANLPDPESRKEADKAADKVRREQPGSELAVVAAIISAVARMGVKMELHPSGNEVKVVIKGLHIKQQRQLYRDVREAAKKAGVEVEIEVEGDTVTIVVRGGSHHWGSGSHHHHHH

LHD101 chainA = target: T2, LHD101 chainA; assay: BLI steady-state titration, biotinylated unfused LHD101A on a streptavidin sensor
T2 construct: also called LHD101A
T2 chain: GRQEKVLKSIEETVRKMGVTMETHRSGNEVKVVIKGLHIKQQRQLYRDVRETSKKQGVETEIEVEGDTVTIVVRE
Source text: FIG. 8A-E. Characterization LHD binding in vitro. A: Designed models heterodimers (top row). Middle row, SEC binding experiments performed on a Superdex™ 75 column. Bottom row, biolayer interferometry kinetic binding traces. […] C: Kinetic binding traces from BLI. Equilibrium responses were used to fit equilibrium binding curves D: Equilibrium binding curves of LHDs from biolayer interferometry binding assays with data from C. […] Biotinylated unfused protomers were immobilized on streptavidin coated biosensors.
Biolayer interferometry experiments were performed on an OctetRED96 BLI system (ForteBio, Menlo Park, CA). Streptavidin coated biosensors were first equilibrated for at least 10 minutes in Octet buffer (10 mM HEPES pH 7.4, 150 mM NaCl, 3 mM EDTA, 0.05% Surfactant P20) supplemented with 1 mg/ml Bovine Serum Albumin (SigmaAldrich). Enzymatically biotinylated designs were immobilized onto the biosensors by dipping the biosensors into a solution with 10-50 nM protein for 30-120 s. This was followed by dipping in fresh octet buffer to establish a baseline for 120 s. Titration experiments were performed at 25° C. while rotating at 1,000 r.p.m. […]

274B53 = target: T3, 274B53; assay: SEC titration (Superdex 200, normalised A230) of the complexes 274A53/274B53 and 29A53/29B53
T3 construct: also called LHD274B DHR53 stop
T3 chain: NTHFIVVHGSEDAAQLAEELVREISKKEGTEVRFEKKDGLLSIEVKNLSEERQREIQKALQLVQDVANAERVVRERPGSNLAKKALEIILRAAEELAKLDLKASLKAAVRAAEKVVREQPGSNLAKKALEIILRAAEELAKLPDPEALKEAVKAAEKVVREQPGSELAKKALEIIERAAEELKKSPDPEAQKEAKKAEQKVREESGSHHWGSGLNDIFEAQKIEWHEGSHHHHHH

DFX = target: T4, DFX; assay: negative-stain EM of the heterotrimer; components named in the legend
T4 construct: Bivalent connector
T4 chain: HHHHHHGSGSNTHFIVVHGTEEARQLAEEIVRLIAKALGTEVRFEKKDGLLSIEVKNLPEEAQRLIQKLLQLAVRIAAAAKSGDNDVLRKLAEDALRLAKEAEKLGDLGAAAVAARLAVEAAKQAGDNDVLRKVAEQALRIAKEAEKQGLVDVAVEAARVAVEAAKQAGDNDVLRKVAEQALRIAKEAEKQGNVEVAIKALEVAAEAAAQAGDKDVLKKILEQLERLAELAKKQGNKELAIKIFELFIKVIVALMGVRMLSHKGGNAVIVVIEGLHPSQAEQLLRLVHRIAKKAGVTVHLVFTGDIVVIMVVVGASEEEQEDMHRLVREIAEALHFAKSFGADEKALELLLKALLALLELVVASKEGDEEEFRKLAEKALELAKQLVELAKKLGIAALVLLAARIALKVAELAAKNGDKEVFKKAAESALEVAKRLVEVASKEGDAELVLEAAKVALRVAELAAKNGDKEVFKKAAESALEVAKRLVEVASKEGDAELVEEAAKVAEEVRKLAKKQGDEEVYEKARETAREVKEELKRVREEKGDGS
Procedure: SEC peak fractions were concentrated prior to negative stain EM screening. Samples were then immediately diluted 5 to 150 times in TBS buffer (25 mM Tris pH 8.0, 25 mM NaCl) depending on sample concentration. A final volume of 5 μL was applied to negatively glow discharged, carbon-coated 400-mesh copper grids (01844-F, TedPella, Inc.), then washed with Milli-Q™ Water and stained using 0.75% uranyl formate as previously described (53). Air-dried grids were imaged on a FEI Talos L120C TEM (FEI Thermo Scientific, Hillsboro, OR) equipped with a 4K×4K Gatan OneView™ camera at a magnification of 57,000× and pixel size of 2.51. Micrographs were imported into CisTEM software or cryoSPARC™ software and a circular blob picker was used to select particles which were then subjected to 2D classification. Ab initio reconstruction and homogeneous refinement in Cn symmetry were used to generate 3D electron density maps (54, 55).

[1] = target: the molecule itself; assay: SEC titration (Superdex 200, normalised A230) of 274A53 and 29A53 alone; self-association

Row | Binder | binding result (DFA0) | binding result (LHD101 chainA) | binding result (274B53) | binding result (DFX) | binding result [1]
1 | 101B62 (designed binder, also called LHD101B62) HHHHHHGSGLNDIFEAQKIEWHEAENLYFQSGSNDEKRKRAEKALQRAQEAEKKGDVEEAVRAAQEAVRAAKESGDNDVLRKVAEQALRIAKEAEKQGNVEVAVKAARVAVEAAKQAGDNDVLRKVAEQALRIAKEALKQGNVDVAAKAAQVAEEAAKQAGDQDVLRKVKEVQIEIVLAAIELTVRKMGVTMETHRSGREVKVVIKGLHESQQEQLLEDVLRIAELAGVRVRIRFKGDTVTIVVRG | binds | binds |  |  | 
2 | 274A53 (designed binder, also called LHD274A DHR53 stop; LHD274A53) TTNFHLINGSEEARQLIEKAVRAISKKEGTEVHFEKSDGTLEIRVKNLHEKREREIKKVIELILEVAAAERIVRERPGSNLAKKALEIILRAAEELAKADVDAALEAAVRAAEKVVREQPGSNLAKKALEIILRAAEELAKLPDPEALKEAVKAAEKVVREQPGSELAKKALEIIERAAEELKKSPDPEAQKEAKKAEQKVREESGSHHWGSGLNDIFEAQKIEWHEGSHHHHHH |  |  | binds | binds | no binding (tested: 8.0 uM)

Reference: US20240368233A1 (University of Washington, published 2024)
